Assay: soluble on expression in E. coli; label from the status in PepcDB or PDB records

Sequence | soluble on expression in E. coli
GPGSMAVPDDNAEEVELLLSISPEVVCRDPTHSSTLVFLLPFRFVLHVTLPPRGYPDVSRPSLFVAAGPNAHLVNQFSSQLNKALREEVPLGGPMLLHIFTLAQDIATELQRTREAEAQEAKARREAMESEAQLALAEREASSVEVWASDAITDRKSKFVAHMARVDSEAAVREVVMHLRSQKHIAEAAHPTIYAYRFTDSSGVVHHDSDDDGETGAASRIMFLLEQMKVDGYVVVVTRWFGGVLLGPDRFKHIMEVARSILLTIPQREKERGVRDWQDRQ | soluble
GSAGERIYNISGNGSPLADSKEIFLTVPVGGGESLRLLASDLQRHSIAQLDPEALGNIKKLSNRLAQICSSIRTHK | soluble
LQMLTLEEWAAEKYRSNPPSVSTLRRYAKQNLFCPPAMKQGRLWRVREDAELVGELVTPVIKKNDSLLLQRILSNGSQTA | not soluble
SNAMLHIDDAMIEDAVTPQAAQEVLHAAFLDFGRGSAAMQRRVRTEAGGVKLSTLGAVIPGQGVAGAKVYTTIKGQFQFVILLFSAADGRPLATCDAGTLTRKRTAACTVLAAGALARPRSSVLGLFGAGTQGAEHAAQLSARFALEAILVHDPYASPEILERIGRRCGVPARMAAPADIAAQADIVVTATRSTTPLFAGQALRAGAFVGAIGSSLPHTRELDDEALRRARAVVVEWREQTLSEAGDLVLAAPDTGLDAKVVELADVLAGRAAARQADEDIVIYKSVGVGLEDVALAGYAYRRLAAQRGWPAP | soluble
MIPDFQTLMLPLLKCVSDGQEHKYRDIIEHLAAEFEVTDEERKELLASGSKAVFDNRVGWARTYLKKAGLLDSPKRAILIISDLGREILSKNPPKIDTKYLRRFPAFIEFQNGYRNDGETEEESITEKIHEQTPEEVLDKAYQRIRKSLASELLNKVIDLSPAFFERLVVELLVKMGYGGSIKDAGKALGKSGDEGIDGTIKEDKLGLDIIYIQAKRWRPGNVVGRPELQKFVGALAGQGAKKGIFITTSNFTKEALTYTPRNETKIVLIDGEQLTQLMIDYNLGCTTQQTYELKKLDSDYFGEE | not soluble
GHHHHHHHHHHGLVPRGSHMNIQSIETYQVRLPLKTPFVTSYGRLEEKAFDLFVITDEQGNQGFGELVAFEQPDYVQETLVTERFIIQQHLIPLLLTEAIEQPQEVSTIFEEVKGHWMGKAALETAIWDLYAKRQQKSLTEFFGPTRRKIPVGISLGIQEDLPQLLKQVQLAVEKGYQRVKLKIRPGYDVEPVALIRQHFPNLPLMVDANSAYTLADLPQLQRLDHYQLAMIEQPFAADDFLDHAQLQRELKTRICLDENIRSLKDCQVALALGSCRSINLKIPRVGGIHEALKIAAFCQENDLLVWLGGMFESGVGRALNLQFASQPTFSFPGDISATERYFYEDIITEPFILEQGTMTVPQGLGIGVTLSQTNLLKYSQYQKIM | soluble
MTTPYCFNLAMRKSSRLITQFYEDRLSAVGLKSGQFSILKAVSFLKQTSNKELQGILVLDQTTLSRNLKPLFRDGYLKLSPDSNDARVKLISLTTQGQALYEKADPLWQKAQDDLEKKLGSEEVKNILTLADSFVKALAR | not soluble
MNRKGYKSGFVSIIGRPNVGKSTFLNRIIGQKIAIMSDKPQTTRNKIQGVYTENDSQVIFIDTPGIHKPKHKLGDFMVKMAQTTLKEVDIVLFMVNAVEGFGRGEEFIIEKLKETKQPVFLVINKIDQVHPEQLLELIDQYRKLHDFAEIVPISALDGNNAEALIGTIKKYLPEGPQYYPDNQVTDHPERFIIAELIREKVLHLTREEVPHSVAVVIDAIQKREGGAVYINATIVVERPSQKGIIIGKQGKMLKEVGKRARFDIEALLGSKVFLEVWVKVQKDWRNKMSQLRDLGFREDEY | not soluble
FNKELDPVQKLFVDKIREYRTKRQTSGGPVDAGPEYQQDLDRELFKLKQMYGKADMNTFPNFTFEDPKFEVVEKPQS | soluble
VSSQKTSSLPKYTPKVNSSINNYIRKKNMKAPRIEEDYTSYFPKYGYRNGVGRPEGIVVHDTANDNSTIDGEIAFMKRNYTNAFVHAFVDGNRIIETAPTDYLSWGAGPYGNQRFINVEIVHTHDYDSFARSMNNYADYAATQLQYYNLKPDSAENDGRGTVWTHAAISNFLGGTDHADPHQYLRSHNYSYAELYDLIYEKYLIKTKQVAPWG | soluble
LEDFNVTSKVIELDVRKPTPEAAENLNIGMDEDIYYVKRVRYINGQTLCYEESYYTKSIVTYLNNEIVSHSIFHYIREGLGLKIGFSDLFLHVGQLNEEEAEYLGLEAGLPKLYIESIFHLTNGQPFDYSKISYNYEQSQ | not soluble
MNTQFSCVGCGKCCNDHHVPLTLLEARDWAADGGQVIILVEAFLGNGLGLPMQQREHAERRSCRVRSGATEAYVAITFAAYNVGPCRNLDEDQLCRIYQRRPLVCRIYPMEINPHIPLNPQAKECPPESWEQGPQLILGNELVDQELAELIRRSRQADRDDIHTKEAICALLGIRTTALKGDGFTAYLPDMGALANAIDQVQAAPPGAPGQPWRFHLSGDDIAGQVQAAGAQVVSETPLDYAFISLRAALEHHHHHH | soluble
MGLQTYNAKRSFDKTPEPKGTKAEKPGSSFVIQKHDARRLHYDFRLEMDGVLKSWAVTRGPSLDPEDKRLAVHVEDHPLSYGDFEGVIPKGQYGGGTVIVWDRGIWQPIGDAGKGYRKGHLEFELEGEKLKGRWHLVRMHGKPGESRENWLLIKGDDLEHHHHHH | not soluble
MILNKKKLYFETQAFTDKLINEISINMSKRKELINCYDIEAYVKETENIDFFDYPFKKQSKKLIWGSVTKIGDVTMVATAQHLKIEIKNFTKMHEIIHHYFDYTTDMPNNEKSFDTLLIKKGYLPEDYPKEFRANKGAGMLLINKKALKYAFSTYDDLEKMASFFNVNDIVLKIRILDELIYSHNLSYKQANLIYNSYYFQQQTQLKEILLK | not soluble
MGSDKIHHHHHHGETIDLGHDTTLDYSVTASYGAAVRTGTQSNTLLSPANINGDDGNRNFKRGDMTANRVSLLGEAHVKHDAFGALVRGSVFYDWAYSGTNSNNAPGTVNHSGPFNEFTGSARDYHESRAQLLDAYVYGAVPIESTQLSFKLGNQVVAWGESLFFANIAGAQGPADATKAFVPGAEVKDILLPVPQASVQWQVTPAFSLMGYYQFTFKPNQLFAPGSYFSTSDIVGPGAEFIIGPGFRIPRGPDISPSDWGQWGIGGRFRVFEDTEIGLYQLRYHDKNPSVVTSLFPTLQYQQKYFGGINLTGASFSTQLAGANVAGEVSYKDGVPMLVDVAGSPTASRGKALQAQLSAIYAIGPTFLANSQTLLGEIAYLHVIGVDSVMGFDKLSNTRNSAAFQVGWSLTYNNVFDGWDLTVPLTYAQQFSGNAAVAGAFGTLMGYGDKRASVGLTFKYLNNLELNLTYAAFIGGASIANRPLADRDYVAFNAKYSF | not soluble
MTRHGKNSTAASVYTYHERRRDAKASGYGTLHARLGADSIKEFHCCSLTLQPCRNPVISPTGYIFDREAILENILAQKKAYAKKLKEYEKQVAEESAAAKIAEGQAETFTKRTQFSAIESTPSRTGAVATPRPEVGSLKRQGGVMSTEIAAKVKAHGEEGVMSNMKGDKSTSLPSFWIPELNPTAVATKLEKPSSKVLCPVSGKPIKLKELLEVKFTPMPGTETAAHRKFLCPVTRDELTNTTRCAYLKKSKSVVKYDVVEKLIKGDGIDPINGEPMSEDDIIELQRGGTGYSATNETKAKLIRPQLELQ | soluble
MSVKKKTQVRTGKMVRELMLADEDVNASLIMVYSENGVNAEIKIEGLTPKCNEELFLSGNVDWNKSVIYKIVDFTGNAEVGKVTLTAMNKNNVSLEIERVMWSKENKEAAEQEETQVEAAPKKEVVVEAPKAITPAPKPVTRVETPAMAPKPTPVPTPKPVSVEAAVELVTPAPVKKAVPTPVTKQETAPVAPAKPKQPALTETNSKLQENYVKLVKKTIEVCQDYELGIDIDDSIESLKEELQSQGISVTFDKEIMDVVNRLRSLQDKGIKVEKVLNLL | not soluble
GSHMEEPSDLEELEQFAKTFKQRRIKLGFTQGDVGLAMGKLYGNDFSQTTISRFEALNLSFKNMAKLKPLLEKWLNDAENLSSDSSLSSPSALNSPGIEGLSERRKKRTSIETNIRVALEKSFLENQKPTSEEITMIADQLNMEKEVIRVWFCNRRQKEKRINPPSS | soluble
MGSDKIHHHHHHMFENILWKMVKKRLIPKRKISRVHRSRKGVKRVVCVAFPLDQMFKSADDFIDALMEILQEDLPFVDLLIFPRLTGNLLAGVSPIRIENFEKLDPFYTDLLRYISKGLDVPIVAPGVETFRTSPDVLVIENGEVLHRYTLRERFAVADFGEWYAAVLRKEDTLSSKALRPLVEKNVFAFIHFDLETEENDWWKEKKGLWARSQSLEVFGIKVSPRGTFLGKTYRGKSYVSAPIPLTPNLTGFLRQDCGVKMSVDLELDLLKGKRHRIDTVKHILFRG | not soluble
GHMSRRYWQLDVFAERPLTGNGLAVFDDASALDDAAMQAWTRELRQFESIFLLPGDDPRAFRARIFTLEEELPFAGHPLLGAAALLHHLRGGDNEQHWTLHLASKSVALRSVRAGSGFYAEMDQGRAEFGATPDAGTCRWFAEAFSLSANDLSGHPPRVVSTGLPYLLLPVTAEALGRARQVNDLQEALDKLGAAFVYLLDVDGREGRTWDNLGLVEDVATGSAAGPVAAYLVEYGLAARGEPFVLHQGRFLERPSRLDVQVATDGSVRVGGHVQLLARAELLTSAGS | soluble
MNTTQRADQQTSADRRRRELLEAADRVVLRDGPHASMNAIAAEAGITKPILYRHFGDKGGLYAALAVRHTDALLASLRAALDAPAQRRQRVEATLDTYLAAIEARPQVYRFLMHPAESAGTPGDQSEQGFDVGKHSAPLLRRMGEELAQVIEERLDVGPGTQQLARVWGHGIVGMMHAAGDWWLGERPCPREELVRTLADLLWGRLAEAGDKEGGPGF | not soluble
MKGGIVHSDGSYPKDKFEKINGTWYYFDSSGYMLADRWRKHTDGNWYWFDNSGEMATGWKKIADKWYYFNEEGAMKTGWVKYKDTWYYLDAKEGAMVSNAFIQSADGTGWYYLKPDGTLADRPEFTVEPDGLITVK | soluble
MGKIVLTYRMPHNWNINPFLKEYQRLLQRAIDEIWDNTSWKEKKVKHRYSLGNEEYRYYETIRLIPYFPQSNDFKRGLRNKLLREWPFAKHYVDSAIKTAYSILKSWRQNYLKGRRKRVKPVVKRKFVRVKTTLMKVEGSKIRITIKPREEYLELDFSREWFYERIKDWKVGELIIRERDILLTFSKEVEFSGRIKIGIDSNLTSLDVYHPEKGWIRVDLSELHRISETYDRIIDMLKSIQRKAPKRIGLLLEKYWTRRRNRIEDYLNKLAVQLSREFPDAIFIFEGLNKFKMLQNGSRKFNRKLSRATWKKIVGKLSYRVPIEFVNPAYTSSTCPICGSKLESRNGLVECFNCGFKADRQFVGAFNILMRGLGVALSGVERDDLPPNEPRGELNAMRPKSVVRVDLNGRRFTHIHSLEHHHHHH | soluble
MSLATTVKIATISPLSGSSSNLGLQIKNGAQLAVNEYKAEFAKLGMNLSLVAYDDQADPATGTAAARRVVADKNVLAVVGTLNTGVAIPASQALSTSKVAMVSPANTGTKVTDRGLKNMNRICARDDAQGPAGADFMVSTLKVKKVYVINDKTPYGEGLSGEAEKRLKAKGVQIVQSEGVAAEERDFTAIITKIQTLKPDAIYFGGLYGQIGPFAQQLRAKGVQVPLIGGDGMDSDELAKLAGAQGANNIYFTTVAPPLDSVPAAKTMAGNFKKAFGSDVQGYGIMGYDSAKVVLQGILDAAKKNGNKAPSRAQVETAIRSGTFGNLLTGTVQFDKNGDRKAGKMYVIAIKNAQRSTAGQVNVLREGHHHHHH | soluble

From the DeepSol protein solubility set
